Experimental data: patent US20180079802A1 (VANDERBILT UNIVERSITY, published 2018)
Numbering of substitutions follows the chain as printed.

B1: 8G18 (antibody, V domains shown)
VH: QVQLVQSGAQVKKPGSSVKVSCKPSGGTFNNNGISWVRQAPGQGLEWMGGIVPNFGTPTYGQDFQGRVTITADESTSTVFLELTRLRSDDTAVYFCARGRTAVTPMQLGLQFYFDFWGRGTLVTVSS
VL: QTVVTQEPSLTVSPGGTVTLTCSANSGAVTSDYYPNWFQQKPGQAPRALIYSASNKFSWTPARFSGSLLGGKAALTLSGAQPEDEAEYYCLVYSGDGVVFGGGTKLTV
B2: 2C2 (antibody, V domains shown)
VH: QVQLVQSGGGLVQPGRSLTLSCAASGFTFDVYAMHWVRQAPGKGLEWVAGISWNSGSVGYADSMKGRFTISRDNAKNSLYLQINSLRAEDTALYYCAKAFWFGELSGYGMDVWGQGTLVTVSS
VL: QAVVTQPPSASGFPGQSVTISCTGTSSDVGSYNYVSWYQQHPGKAPKLIIYAVTRRPSGVPERFSGSKSGNTASLTVSGLQAEDEADYYCTSYAGNNKDVFGTGTKVTVL
B3: 5O14 (antibody, V domains shown)
VH: QVQLVQSGGRVVQAGRSLRLSCAASGFTFSMYGVHWVRQAPGKGLEWVAVIWNDGSKEYYGDSVKGRFTISRDNSRNTLYLQMNSLRVDDTAVYFCARDGIPDPERGDYGGLDYWGQGTLVTVSS
VL: QTVVTQFPSSPFASVGDGVTITCRARQSISSYVNWYQQKPGKAPKLLIYATSSLQSGVPSRFSGSGYGTDFTLTISGLQPEDFATYYCQQSYSFPRTFGQGTKVEIK
B4: 4J14 (antibody, V domains shown)
VH: QVQLVQSGAEVKKPGSSVKVSCKASGGTSSTYAISWVRQAPGQGLEWMGGSIPVFATVNYAQKFQGRLTITADESTSTVYMELSSLRSEDTAVYFCASPYCSSMNCYTTFYYFDFWGQGTLVTVSS
VL: QAVVTQPASVFGFPGQSITISCTGTSSDFGTYNYVSWYQQHPGQAPKLMIFDVSNRPSGVSNRFSGSKSGNTASLTISGLQAEDEASYYCSSYTSGSTLYGGGTKLTVL
B5: 4J21 (antibody, V domains shown)
VH: QVQLVQSGSELKKPGASVKVSCKASGYSFTSYSINWVRQAPGQGPEWMGWIDTNTGNPTYAQDFAGRFVFSLDTSVTTAYLQISSLKAGDTAVYYCATYYVDLWGSYRQDYYGMDVWGHGTLVTVSS
VL: QSVVTQPPSVSGTPGQGVTISCSGGSSNIGSNPVNWYQMVPGTAPKLLLYTNNQRPSGVPDRFSGSKSGTSASLAINGLQSEDEADYYCAVWDDSLSGRWVFGGGTKLTVL
B6: 3A2 (antibody, V domains shown)
VH: QVQLVQSGGGVVQPGRSLRLSCAASGFTFSNYVMEWVRQAPGKGLEWVAVISYDGSNKYYADSVKGRFTISRDNSKNTLYLQMNSLRAEDTAVYYCARSEWESSYGSGNYYTDYFYYYAMDVWGPGTLVTVSS
VL: QAVVTQSPLSLPVTPGEPASISCRSNQSLLRGIRYNYLDWYLQKPGQSPQLLIYLGSNRASGVPDRFSGSGSATDFTLKISRVEAEDVGVYYCMQALQTPTTFGQGTRLEIK
B7: 2D12 (antibody, V domains shown)
VH: QVQLVQSGAEVKKPGASVKVSCKASGYSFNIYGISWVRQAPGQGLEWMGWISAYNGNTNYAQKLQGRVTMTTDTSTSTAYMELRSLRSDDTAVYYCARPLWGEFYYDIWGQGTLVTVSS
VL: QAVVTQSPGTLSLSPGERATLSCRASQSVSSGYSAWYQQKPGQAPRLLIYGASKRAAGIPDRFSGSGSGTDFTLTISRLEPEDFAVYYCQLFATSPPPFGQGTRLEIK
B8: 3B4 (antibody, V domains shown)
VH: QVQLEESGPTLVKPTQTLTLTCSFSGFSLTTTGVTVGWIRQPPGKALEWLALIYWDDDKRYSPSLKSRLTITKDTSKNQVVLTMTNMDPVDTATYYCAHSTGYYDSSGYRGALDAFAVWGQGTLVTVSS
VL: QIVVTQFPDSPAVSLGERATINCKSSQSVLYHSNNKNYLAWYQQKPGQPPNLLIYWASARQSGVPDRFSGSGSGTDFTLTISSLQAEDVAVYYCQQYYSTPYTFGQGTKLEIK
B9: 3E23 (antibody, V domains shown)
VH: QVQLVQSGPGLVKPSDTLSLTCSVSSDALRSRSYYWGWVRQPPGKGLEWIGTVSYSGGTYYNPSLQSRVTVSVDTSKNHFSLRLNSVTAADAAVYYCARSYFYDGSGYYYLSYFDSWGQGTLVTVSS
VL: QAVVTQEPSLTVSPGGTVTLTCASSTGAVTSGHYPNWFQQKPGQPPRALIYSTDNKHSWTPARFSGSLLGVKAALTLSDVQPEDEADYYCLLHFGGVVVFGGGTKLTVL
B10: 1L1 (antibody, V domains shown)
VH: QVQLVQSGPTLVKPTQTLTLTCTFSGFSLSISGVGVGWIRQPPGKALEWLALIYWDDDKRYSPSLKSRLTITKDTSENQVVLTMTNMDPVDTATYYCAHSMTKGGAIYGQAYFEYWGQGTLV
VL: PSPALEPDSDVGGYNYVSWYQQHPGKAPKLIIYDVTDRPSGVSNRFSASKSANTASLTISGLQAEDEADYYCSSYTSSST
B11: 4N12 (antibody, V domains shown)
VH: QVQLVQSGAEVKKPGASVKVSCKVSGYILSKLSVHWVRQAPGKGLEWMGGSEREDGETVYAQKFQGRISLTEDTSIETAYMELSSLSSEDTAVYYCATGGFWSMIGGNGVDYWGQGTLVTVSS
VL: QAVVTQSPSSLPASVGDRVTITCRASQDIRNNLGWYQQKPGKAPERLIYGTSNLQSGVPSRFSGSGSGTEFTLTISSLQPEDFATYYCLQHNSYPPTFGRGTKVEIK
B12: 2B4 (antibody, V domains shown)
VH: QVQLVQSGSELKKPGASVKVSCKASGYSFTSYSINWVRQAPGQGPEWMGWIDTNTGNPTYAQDFAGRFVFSLDTSVTTAYLQISSLKAGDTAVYYCATYYVDLWGSYRQDYYGMDVWGH
VL: B5 VL with V4L, V10A, G17R, L108V

The binders below were run against CHIKV p62-E1 (Chikungunya virus) (assay: SPR (Biacore T100), IgG captured by anti-human IgG, p62-E1 injected).
For B1, the Kd was 0.48 nM, the koff was 0.000188 s⁻¹ and the kon was 390000 M⁻¹ s⁻¹. For the same binder, the “t1/2” value was 62 min. Binder B2 has a Kd of 4.59 nM, a koff of 0.000608 s⁻¹ and a kon of 154000 M⁻¹ s⁻¹. The “t1/2” value was 19 min. B3 gave a Kd of 1.15 nM, a koff of 0.000911 s⁻¹ and a kon of 790000 M⁻¹ s⁻¹. The “t1/2” value was 13 min. Work on B4 yielded a Kd of 9.94 nM, a koff of 0.00153 s⁻¹ and a kon of 161000 M⁻¹ s⁻¹. The “t1/2” value was 8 min. Work on B5 yielded a Kd of 0.54 nM, a koff of 6.2e-05 s⁻¹ and a kon of 119000 M⁻¹ s⁻¹. The “t1/2” value was 186 min. Work on B6 yielded a Kd of 4.78 nM, a koff of 0.00101 s⁻¹ and a kon of 212000 M⁻¹ s⁻¹. The “t1/2” value was 11 min. In the case of B7, the Kd is reported as 0.49 nM, the koff is reported as roughly 0.00086 s⁻¹ and the kon is reported as 1.75e+06 M⁻¹ s⁻¹. For the same binder, the “t1/2” value was 13 min. B8 gave a Kd of 0.54 nM, a koff of 0.000156 s⁻¹ and a kon of 291000 M⁻¹ s⁻¹. The “t1/2” value was 74 min. B9 was tested, and the koff was 0.000267 s⁻¹ and the “t1/2” value was 43 min. In the case of B10, the Kd is reported as 3.79 nM, the koff is reported as 0.000273 s⁻¹ and the kon is reported as 88000 M⁻¹ s⁻¹. The “t1/2” value was 42 min. For B11, the Kd was 0.95 nM, the koff was 0.000118 s⁻¹ and the kon was 124000 M⁻¹ s⁻¹. For the same binder, the “t1/2” value was 98 min.

Each binder was assayed against CHIKV strain RSU1 (Asian genotype) (Chikungunya virus strain RSU1) (assay: cell-based or functional assay).
B2 was tested, and the “Neutralization (FRNT), EC50” value was greater than 10000 ng/mL. In the case of B3, the “Neutralization (FRNT), EC50” value is reported as 17.3 ng/mL. B12 was tested, and the “Neutralization (FRNT), EC50” value was 6.5 ng/mL. With B5 the “Neutralization (FRNT), EC50” value was 7.7 ng/mL.

Each binder was assayed against CHIKV strain NI 64 IbH 35 (West African genotype) (Chikungunya virus strain NI 64 IbH 35) (assay: cell-based or functional assay).
With B2 the “Neutralization (FRNT), EC50” value was greater than 10000 ng/mL. For B3, the “Neutralization (FRNT), EC50” value was 6.7 ng/mL. With B12 the “Neutralization (FRNT), EC50” value was 3.2 ng/mL. With B5 the “Neutralization (FRNT), EC50” value was 5.2 ng/mL.

These binders were tested against CHIKV strain LR2006 OPY1 (LR) (ECSA genotype) (Chikungunya virus strain LR2006 OPY1) (assay: cell-based or functional assay).
B2 was tested, and the “Neutralization (FRNT), EC50” value was greater than 10000 ng/mL. For B3, the “Neutralization (FRNT), EC50” value was 12.1 ng/mL. B12 was tested, and the “Neutralization (FRNT), EC50” value was 5.6 ng/mL. With B5 the “Neutralization (FRNT), EC50” value was 7.4 ng/mL.

These binders were tested against CHIKV strain 99659 (Asian genotype, 2014 Caribbean) (Chikungunya virus strain 99659) (assay: cell-based or functional assay).
In the case of B3, the “Neutralization (FRNT), EC50” value is reported as 6.2 ng/mL. B12 was tested, and the “Neutralization (FRNT), EC50” value was 7 ng/mL. B5 was tested, and the “Neutralization (FRNT), EC50” value was 7.2 ng/mL.
